{
  "source": "patent US20090130070A1",
  "about": "“METHOD OF TREATMENT” (The University of Queensland, priority 2004, published 2009)",
  "key": {"[1]": {"assay": "Penetration of fluorescently labeled fetuin into lamb burn wounds from different carriers", "format": "in vivo, Merino lambs", "conditions": "2 mg/mL, lamb scald wounds, 24 hours", "method": "Lyophilized bovine Fetuin (Sigma) was dissolved in purified water at a concentration of 10 mg/mL. Aliquots of 200 μL were labeled using a FluoReporter Oregon Green® 488 Protein Labeling Kit (Molecular Probes). Assuming 85% recovery from the kit, the solution was dried down using a vacuum concentrator (Labconco) and added at 2 mg/mL to one of 3 different carriers: paraffin cream, aqueous cream (Orion, Australia) or dissolved in purified water to make an aqueous solution.\nTwo Merino lambs were scalded under general anesthesia as described previously. Eight wounds were created on each animal; 2× control wounds with nothing added, 2× aqueous solution treated wounds, 2× aqueous cream treated wounds and 2× paraffin cream treated wounds. The wounds were dressed with Melolin and Sleek and the lambs awoken and returned to the pens. 24 hours later the lambs were euthanized and the burn wounds (as well as an unburned area) were collected and fixed in formalin for paraffin embedding. Sections of (4 μm) were taken and examined under a Nikon EP epifluorescent microscope to determine the extent of fetuin penetration in each of the carriers. Brightfield transmittance and Fluorescent green images were captured with a Spot RT slider cooled CCD camera and overlayed with using Photoshop software."}, "TGF-β3": {"biological_target": "T1, TGF-β3 (Homo sapiens, UniProt P10600)", "T1 sequence (P10600 301-412 limits assumed)": "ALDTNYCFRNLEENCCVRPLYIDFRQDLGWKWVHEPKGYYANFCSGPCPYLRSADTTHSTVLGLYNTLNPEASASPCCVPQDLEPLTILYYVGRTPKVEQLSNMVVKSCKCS", "conditions": "cited from earlier work"}, "TGF-β1": {"biological_target": "TGF-β1 (Homo sapiens, UniProt P01137)", "sequence (P01137 279-390 limits assumed, species assumed)": "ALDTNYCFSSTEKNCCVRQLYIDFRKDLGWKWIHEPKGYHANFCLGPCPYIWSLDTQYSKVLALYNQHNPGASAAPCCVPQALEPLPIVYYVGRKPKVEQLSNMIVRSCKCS", "conditions": "cited from earlier work"}, "BMP-4": {"biological_target": "T2, BMP-4 (Homo sapiens, UniProt P12644)", "T2 sequence (P12644 293-408)": "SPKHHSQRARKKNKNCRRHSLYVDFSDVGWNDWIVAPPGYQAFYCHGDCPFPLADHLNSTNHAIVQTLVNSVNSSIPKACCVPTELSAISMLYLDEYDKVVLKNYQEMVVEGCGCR", "conditions": "cited from earlier work"}, "BMP-2": {"biological_target": "T3, BMP-2 (Homo sapiens, UniProt P12643)", "T3 sequence (P12643 283-396)": "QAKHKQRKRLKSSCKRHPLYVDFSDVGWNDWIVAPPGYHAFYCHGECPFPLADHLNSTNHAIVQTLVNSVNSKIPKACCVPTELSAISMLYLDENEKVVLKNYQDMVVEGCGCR", "conditions": "cited from earlier work"}},
  "note": "Entries after “also recorded” stand apart in the source; their conditions may differ.",
  "data": [
    {"substance": "Fetuin: bovine fetuin A (Sigma); glycoprotein also called alpha2-Heremans-Schmid-glycoprotein (AHSG)", "values": [
      {"measurement": "penetration of labeled fetuin into burn tissue", "setting": "[1]; aqueous solution", "result": "good penetration; also recorded: on the epidermis and at the end of hair follicles"},
      {"measurement": "penetration of labeled fetuin into burn tissue", "setting": "[1]; oil based paraffin cream", "result": "little or no penetration"},
      {"measurement": "penetration of labeled fetuin into burn tissue", "setting": "[1]; water based (aqueous) cream", "result": "good penetration; also recorded: penetration to the base of the hair follicles"},
      {"measurement": "binding to TGF-β3", "setting": "TGF-β3", "result": "weakly"},
      {"measurement": "binding to TGF-β1", "setting": "TGF-β1", "result": "strongly"},
      {"measurement": "binding to BMP-4", "setting": "BMP-4", "result": "strongly"},
      {"measurement": "binding to BMP-2", "setting": "BMP-2", "result": "strongly"}
    ]}
  ]
}
